Values belong to the molecule of their own block, whether it stands above or below them. Ends that are not written are not given here. Ahx = NCCCCCC(=O)O
Legend:
[1] = Solubility of synthesized peptides; format: physicochemical; settings: when synthesized and experimentally tested
[2] = molecular target: LVEAVY tracer (synthetic construct); settings: cited from earlier work
Cdc37 = molecular target: T1, Cdc37 (Homo sapiens, UniProt Q16543); test: 19F T2 filter NMR binding to Cdc37; settings: 19F-peptides 20 μM, increasing Cdc37 (0.5, 1, 2, 4 μM)
T1 sequence (Q16543 1-378): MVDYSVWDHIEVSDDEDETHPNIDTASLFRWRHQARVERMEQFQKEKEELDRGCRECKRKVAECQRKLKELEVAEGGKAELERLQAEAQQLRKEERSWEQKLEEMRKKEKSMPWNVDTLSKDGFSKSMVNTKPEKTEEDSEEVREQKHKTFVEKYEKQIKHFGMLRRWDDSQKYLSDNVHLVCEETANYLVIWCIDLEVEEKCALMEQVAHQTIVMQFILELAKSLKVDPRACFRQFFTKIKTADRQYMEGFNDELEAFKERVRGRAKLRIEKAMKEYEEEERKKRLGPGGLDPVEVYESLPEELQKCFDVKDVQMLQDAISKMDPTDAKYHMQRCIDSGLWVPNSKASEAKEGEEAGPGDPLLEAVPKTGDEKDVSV

[3] = molecular target: T2, Hsc70 SBD construct (residues 395-509) (human, UniProt P11142 395-509); test: fluorescence polarisation
T2 sequence (P11142 395-509): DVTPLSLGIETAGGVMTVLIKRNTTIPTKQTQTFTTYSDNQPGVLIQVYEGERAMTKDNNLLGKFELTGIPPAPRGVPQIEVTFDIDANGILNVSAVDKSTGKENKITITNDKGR

[4] = molecular target: T2, Hsc70 SBD construct (residues 395-509); test: fluorescence polarisation; remark: listed apart in the source
[5] = molecular target: T2, Hsc70 SBD construct (residues 395-509); test: fluorescence polarisation; remark: listed apart in the source

solubility [1]: limited solubility
Molecule: F-GVAEIGVGAYG [Cdk4-3]

solubility [1]: limited solubility
Molecule: FATSRTDREGPN [Cdk4-1]

binding to Cdc37, 19F NMR titration (Cdc37): no interaction was observed
Molecule: PGQLMAISVGPTTLFV [Cdk4-2-scr]

binding result [4]: binds
B2: Ac-… with the Leu residue mutated to alanine (peptide)
peptide: Ac-TGGFQMAAT

binding result [4]: binds
B3: Ac-… with the Met residue mutated to alanine (peptide)
peptide: Ac-TGGFQAALT

The remaining lines, values behind:

Molecule: Hsc70 SBD (from UniProt P11142)
Kd [2]: 100 nM

B1: FAM-Ahx-LPISTGGFQMALTPVV-OH (peptide)
peptide: {FAM-Ahx}-LPISTGGFQMALTPVV-OH
Kd [3]: 29 nM

B4: unlabeled Cdk4-4 (peptide)
peptide: Ac-GGFQMALTPVV-OH
Ki [5]: > 100000 nM

From publication PMC13262181 (Structure (London, England : 1993), 2025)
